Assay results published in article PMC2688778 (Structure (London, England : 1993), 2009).

Target: T1, RecE564 R768A (Escherichia coli K12, UniProt P15032 564-866, R768A)
T1 sequence: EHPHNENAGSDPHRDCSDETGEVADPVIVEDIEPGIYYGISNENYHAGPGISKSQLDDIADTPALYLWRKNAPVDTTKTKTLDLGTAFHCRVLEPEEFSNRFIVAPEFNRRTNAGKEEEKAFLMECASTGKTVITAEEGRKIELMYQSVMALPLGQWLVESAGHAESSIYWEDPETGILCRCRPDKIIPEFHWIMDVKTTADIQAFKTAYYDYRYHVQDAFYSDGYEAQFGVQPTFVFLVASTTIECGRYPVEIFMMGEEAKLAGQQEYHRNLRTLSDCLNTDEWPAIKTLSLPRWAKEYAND
Assay: fluorescence anisotropy

B1: F25 (dsDNA)
DNA 1: TAGAGCTTAATTGCTGAATCTGGTG
DNA 2: CACCAGATTCAGCAATTAAGCTCTA
- Kd: 310 ± 30 nM
